According to US20230194545A1 (SEATTLE CHILDREN S HOSPITAL D B A SEATTLE CHILDREN S …, published 2023):

Molecular target: T1, WASp 289-304 signature peptide (human)
T1 construct: Endogenous tryptic peptide released from human dried blood spot digests
T1 peptide: LIYDFIEDQGGLEAVR
Assay: immuno-SRM: peptide enrichment from normal control DBS digests, quantified by LC-SRM-MS

- binding result: binds
B1: Anti-WASp 289 monoclonal antibody (antibody, V domains shown)
VH: QSVEESGGRLVTPGTPLTLTCTVSGFSLSSSDMTWVRQAPGKGLEYIGYMSSNDRPYYASWANGRFTISKTSTTVTLKITSPTTEDTATYFCCRGVLGTRSIHIWGPGTLVTVSL
VL: IVMTQTPSPVSAAVGGTVTINCQASESVYSDNRLSWYQQKPGQPPKQLIYGASTLASEVSSRFKGSGSGTQFTLTINDVVCDDAATYYCAGYKSSNQDGIGFGGGTEVVVKG
modifications: In the assay the antibody was chemically cross-linked (DMP) to Protein G magnetic beads; the letters do not carry this.
notes: Rabbit monoclonal antibody raised against the KLH-conjugated peptide; The printed light chain holds an X near its C-terminus; In the assay the antibody was cross-linked to Protein G magnetic beads
